Experimental data taken from patent publication US11485991B2, “Multifunctional recombinant nucleotide dependent glycosyltransferase protein and its method of glycosylation thereof” (Council of Scientific & Industrial Research, priority 2016, dated 2022).
Changes are numbered by the printed parent chain. In names and notes the source's numbering stands. Ends that are not written are not given here.

B1: GT-CTH D131A (protein)
chain: MGYSENFIANDWFNVEVFNKNKYTLTNQENKDVTELWLQILKGLKFPNELKETVSYSKNLKELSLKTHAEVSVCIIAKNEQDSIRKCINSIYEFSDEIIFIDTGSIDSTKKIVKEIASEKVKIFDYTWQDAFSDARNYSIQKASKEWILIIDADEYVSSDELIKLRLLIDMLDRFKFKDSLRVSCAIYQLDNVITHGQSRLFRNNNKIKYYGLIHEELRNNKGLDPIFNVESEITFFHDGYKEILRKEKCERNIRLLAKMLEKEPDNVRWAYLYCRDSFSINSNIDFEKILLPFLIKNMDESISCENILLTNYTHLILFLITKKYIIDGKSSLASKCIEVLEKMLPNSSDVTFYKFLNKQHSLYEQQFEFLKEVIQFRKNNEYDQYSQIGCNLLHYDLLISGLLFDVKSYDYSYQYFLKLDLANYFSELEIPDEYKMLINKYRENESLEHHHHHH
B2: GT-CTH E97A (protein)
chain: B1 chain with E97A, A131D
B3: GT-CTH D152A (protein)
chain: B1 chain with A131D, D152A
B4: GT-CTH Y241A (protein)
chain: B1 chain with A131D, Y241A
B5: GT-CTH D131A, F132D (protein)
chain: B1 chain with F132D
B6: GT-CTH F132A (protein)
chain: B1 chain with A131D, F132A
B7: GT-CTH R136A (protein)
chain: B1 chain with A131D, R136A
B8: GT-CTH W147A (protein)
chain: B1 chain with A131D, W147A
B9: GT-CTH A153R (protein)
chain: B1 chain with A131D, A153R
B10: GT-CTH D130A (protein)
chain: B1 chain with D130A, A131D
B11: GT-CTH D154A (protein)
chain: B1 chain with A131D, D154A
B12: GT-CTH D102A (protein)
chain: B1 chain with D102A, A131D
B13: GT-CTH C87A (protein)
chain: B1 chain with C87A, A131D
B14: GT-CTH D130A, D131A (protein)
chain: B1 chain with D130A

System: synthetic acceptor substrates
Experiment: In vitro glycosyltransferase (GT) assay of GT-CTH mutants with MS detection of glycosylated product
Format: biochemical
Conditions: purified mutant of GT-CTH, acceptor substrate and UDP-glucose, MS analysis
Experimental: Purified recombinant nucleotide dependent glycosyltransferase (0.2 μM) is incubated with synthetic acceptor substrates (5 μM) and 100 μM UDP-glucose in a reaction buffer containing 20 mM HEPES, pH 7.5, 50 mM NaCl, 1 mM TCEP and 1 mM MgCl2. The reaction is incubated at 25° C. for 12 h. Each assay reaction was accompanied by control reaction (without enzyme). The reactions are quenched with 5% TFA to pH 2, desalted using ZipTip C18, and vacuum dried and analyzed using mass spectrometry.
Mass spectrometry has been used to detect glycosylation in product of glycosylation assay reactions using Matrix Assisted Laser Desorption Ionization Time of flight mass spectrometry (MALDI-TOF MS) and Liquid chromatography electrospray ionization mass spectrometry (LC/ESI-MS) techniques. MALDI-TOF MS has carried out at AB Sciex 5800 MALDI TOF/TOF and LC/ESI-MS has carried out at 6550 iFunnel QTOF LC/MS (Agilent Technologies) using Zorbax Eclipse plus C8 column (3.0×150 mm, 5μ) of Agilent technologies. For MALDI-TOF analysis and LC-ESI/MS analysis, vacuum dried samples are reconstituted in water and 0.1% formic acid respectively.
Various mutations are introduced in recombinant nucleotide dependent glycosyltransferase (GT-CTH) using side directed mutagenesis (Quick change lightning Mutagenesis kit, Agilent) using GTpET28a plasmid as template. The sequence of mutants is verified through DNA sequencing. The mutated recombinant plasmids are transformed into E. coli Lemo21(DE3) and E. coli BL21(DE3) cells for expression. The over expression, purification and functional analysis of mutants of recombinant nucleotide dependent glycosyltransferase proteins are performed using the above mentioned methods. The list of mutants of recombinant nucleotide dependent glycosyltransferase, created in accordance with present invention identifies D102, R136, W147, D152, A153, D154 residues critical for activity of recombinant nucleotide dependent glycosyltransferase (GT-CTH). Replacement of these residues to alanine results into abolishment of the glycosyltransferase activity.

Row | Molecule | In vitro glycosyltransferase activity status
1 | B1 | Active
2 | B2 | Active
3 | B3 | Inactive
4 | B4 | Active
5 | B5 | Inactive
6 | B6 | Active
7 | B7 | Inactive
8 | B8 | Inactive
9 | B9 | Inactive
10 | B10 | Active
11 | B11 | Inactive
12 | B12 | Inactive
13 | B13 | Active
14 | B14 | Inactive

System: Listeria monocytogenes EGD-e
Experiment: Agar well diffusion assay of antimicrobial activity of enterocin 96 glycoforms (zone of growth inhibition)
Format: cell-based
Conditions: 50 μM glycoform in agar wells, BHI agar seeded with Listeria monocytogenes EGD-e, 37° C. for 12 h
Experimental: The di-glycosylated, mono-glycosylated and un-glycosylated glycoforms corresponding to enterocin 96 (known bacteriocin) peptide sequence are prepared under controlled GT assay conditions and purified using RP-HPLC based method. The lyophilized product glycoforms including glyco-diversified forms are resuspended in 50 mM Tris-Cl, pH 7.5. The culture of Listeria monocytogenes EGD-e is grown in BHI media at 37° C. for 7-8 h. Agar plates are prepared by mixing 25 μL of saturated culture (A600≈1.5) and 100 mL of molten BHI agar (cooled to 40-45° C.) and pouring the mixture into sterile petri plates. The seeded agar plates are allowed to solidify for 30-45 min and agar wells are prepared using a sterile cork borer. 50 μM of all glycoforms including glyco-diversified forms are poured in to the wells and plates are incubated at 37° C. for 12 h. The antimicrobial activity is determined by the presence and absence of zone of growth inhibition.

Row | Molecule | antimicrobial activity (presence and absence of zone of growth inhibition)
15 | di-glucosylated product: Enterocin 96 peptide (SEQ ID NO: 4) carrying a glucose-glucose disaccharide glycan, made with the recombinant glycosyltransferase (MSKRDCNLMKACCAGQAVTYAIHSLLNRLGGDSSDPAGCNDIVRKYCK; cysteine pairing not given here; also: glucose-glucose disaccharide glycan, site not given here) | more antimicrobial activity than mono-glucosylated product
